Test results published in patent US20230330143A1 (GAMMADELTA THERAPEUTICS, published 2023).

Molecular target: Vδ1 chain-containing γδ TCR on γδ T cells
Test: cell-based or functional assay

T cell degranulation (EC50 µg/ml - 3 donors) | Binder | Killing assay (EC50 µg/ml - 2 or 3 donors)
0.001 µg/mL | 1245_P01_G09 (antibody, V domains shown) VH: QVQLQQSGPGLVKPSQTLSLTCAISGDSVSSNSAAWNWIRQSPSRGLEWLGRTYYGSKWYNEYALSVKSRIIINPDTSKNQFSLQLNSVTPEDTAVYYCARDYYYSMDVWGQGTLVTVSS VL: DIVMTQSPSTLSASIGDRVTITCRAGQSISTWLAWYQQKPGKAPKLLIYDASSLESGVPLRFSGSGSGTEFTLAISSLQPDDFATYYCQQSYSTPVTFGQGTKVEIK | 
0.002 µg/mL | 1245_P02_G04 (antibody, V domains shown) VH: QVQLQQSGPGLVKPSQTLSLTCAISGDSVSSKSAAWNWIRQSPSRGLEWLGRTYYRSKWSTDYAASVKSRITINPDTSKNQLSLQLNSVTPEDTAVYYCARTWSGYVDVWGQGTLVTVSS VL: DIQMTQSPPALSASVGDRVTITCRASQDINDWLAWYQHKPGKAPKLLIYDASSLESGVPSRFSGSGSGTEFTLTISSLQPDDFATYYCQQSYSTPQVTFGQGTRLEIK | 0.1 µg/mL

More lines, now with the values behind:

Binder | T cell degranulation (EC50 µg/ml - 3 donors) | Killing assay (EC50 µg/ml - 2 or 3 donors)
1252_P01_C08 (antibody, V domains shown, Anti-Vδ1 antibody with a lambda light chain) VH: EVQLLESGGGLVQPGRSLRLSCAASGFTVSSNYMSWVRQAPGKGLEWVSVIYSGGSTYYADSVKGRFTISRDNSKNTLYLQMNSLRAEDTAVYYCASPIELGAFDIWGQGTLVTVSS VL: SSYELTQPPSVSVAPGKTARITCGGNNIGSQSVHWYQQKPGQAPMLVIYYDSDRPSGIPERFSGSNSGNTATLTISRVEAGDEADYYCQVWDSSSDHVVFGGGTKLTVL |  | 0.02 µg/mL
1139_P01_E04 (antibody, V domains shown) VH: QVQLQQSGPGLVKPSQTLSLTCAISGDSVSSNSAAWNWIRQSPSRGLEWLGRTYYRSKWYNDYAVSVRSRITINPDTSKNQFSLQLNSVTPEDTAVYYCARSWNDAFDIWGQGTTVTVSS VL: DIVMTQSPSTLSASIGDRVTITCRAGQSISTWLAWYQQKPGKAPKLLIYDASSLESGVPLRFSGSGSGTDFTLTISSLQPEDFATYYCQQSYSTPLTFGGGTKVEIK | 0.005 µg/mL | 
1245_P01_G06 (antibody, V domains shown) VH: QVQLVESGGGLVKPGGSLRLSCAASGFTFSDYYMSWIRQAPGKGLEWVSYISSSGSTIYYADSVKGRFTISRDNAKNSLYLQMNSLRAEDTAVYYCARHSWNDAFDVWGQGTLVTVSS VL: not shown | 0.001 µg/mL | 
1245_P01_E07 (antibody, V domains shown) VH: QVQLVESGGGLVKPGGSLRLSCAASGFTFSDYYMSWIRQAPGKGLEWVSYISSSGSTIYYADSVKGRFTISRDNAKNSLYLQMNSLRAEDTAVYYCARVDYADAFDIWGQGTLVTVSS VL: DIQMTQSPSSLSASVGDRVTIACRAGQSIGTYLNWYQQKPGKAPKLLIYVASSLQSGVPSRFSGSGSGTEFTLTISSLQPEDFATYYCQQSYSTLLTFGRGTKVEIK |  | 0.06 µg/mL
